The target of this assay is T1, mouse DR5 (Mus musculus (4T1: BALB/c; MC38: …, UniProt Q9QZM4).
T1 construct: mouse DR5, endogenous on the surface of 4T1 and MC38 cells; also called muDR5; murine DR5; source: endogenous, on murine 4T1 and MC38 cells
In words: flow cytometry on cells; antibody on murine 4T1 and MC38 cells, FACS histograms. The following applies: one partner purified. Background: Flow cytometry measures light scatter and fluorescence of single cells or particles in a stream.

These results are taken from PMC7933954 (EMBO Molecular Medicine, 2021).

T1 sequence (Q9QZM4 53-381): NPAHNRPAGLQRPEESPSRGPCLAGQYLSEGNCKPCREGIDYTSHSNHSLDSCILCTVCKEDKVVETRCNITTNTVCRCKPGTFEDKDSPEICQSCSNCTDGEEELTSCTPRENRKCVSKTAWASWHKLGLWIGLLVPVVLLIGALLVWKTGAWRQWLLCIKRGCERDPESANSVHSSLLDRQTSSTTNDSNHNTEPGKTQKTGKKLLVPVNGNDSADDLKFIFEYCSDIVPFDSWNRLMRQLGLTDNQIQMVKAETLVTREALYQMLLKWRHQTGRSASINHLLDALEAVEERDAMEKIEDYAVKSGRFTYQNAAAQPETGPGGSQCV

B1: MD5‐1 (antibody, V domains shown)
VH: QIQLQESGPGLVKPAQSLSLTCSITGFPITAGGYWWTWIRQFPGQKLEWMGYIYSSGSTNYNPSIKSRISITRDTAKNQFFLQLNSVTTEEDTAIYYCARAGTSYSGFFDSWGQGTLVTVSS
VL: DIQVTQSPSLLSASFGDKVTINCLVTQDITYYLSWYQQKSGQPPTLLIYNGNSLQSGVPSRFSGQYSGRTFTLSLSSLEPEDAGTYYCLQHYSVPFTFGGGTRLEIK
notes: heavy chain of MD5‐1; light chain of MD5‐1; for efficacy studies it is said to carry IgG1 KO‐Fc and S267E mutations; also called anti‐mouse DR5 antibody (MD5‐1); murine DR5 agonist MD5‐1
As for B1, the binding result was “binds”.
